# Source: publication PMC10374146
# B1: BME_RS09560 (hypothetical protein) (dsDNA)
# DNA 1: ATGTTATAGAGCGATTCTGGTT
# DNA 2: AACCAGAATCGCTCTATAACAT
# B2: BME_RS14525 (ftrA) (dsDNA)
# DNA 1: CTTAATGAAAAATCTATTCAG
# DNA 2: CTGAATAGATTTTTCATTAAG
# B3: BME_RS13655 (2Fe-2S binding protein) (dsDNA)
# DNA 1: CGGTTTATTTTGTTTTTTTAGTTTC
# DNA 2: GAAACTAAAAAAACAAAATAAACCG
# B4: BME_RS10660 (zntA) (dsDNA)
# DNA 1: TCAGGCAAGCTTCATGCCCATATCC
# DNA 2: GGATATGGGCATGAAGCTTGCCTGA
# B5: BME_RS01725 (membrane protein) (dsDNA)
# DNA 1: GCATATTTTAGAATTATTCTAAATT
# DNA 2: AATTTAGAATAATTCTAAAATATGC
# Biological target: Irr (iron response regulator) (Brucella melitensis M5-90, UniProt Q842L5 1-145)
# Assay: EMSA
# Settings: protein: ivt; tags: Halo (pDAP-Halo-Kan vector); chain copies: 2; label: biotin; blunt
row,Binder,binding result
1,B1,binds
2,B2,binds
3,B3,binds
4,B4,binds
5,B5,binds
